Common to all, as to assay: SPR, antibody on sensor, monomeric PD-1 ECD in solution
(In general: In SPR one partner is held on a chip, and binding of the other changes the refractive index at the surface.)

In test [1] the target is T1, human PD-1 ECD (Acro Biosystems cat. no. PD1-H52219) (human, UniProt Q15116 25-170).
T1 construct: extracellular domain; Bought monomeric ECD; also called monomeric PD-1 antigen
The method, then: (§1) The kinetic binding analysis was performed by Surface Plasmon Resonance (SPR) using a Continuous Flow Microspotter (CFM, Wasatch Microfluidics, US) combined with an Ibis MX96 SPR instrument (IBIS Technologies, The Netherlands). Surface Plasmon Resonance imaging analysis was performed on G-a-hu-IgG Fc SensEye® SPR sensors (Ssens BV, The Netherlands). Anti-PD-1 antibodies expressed in IgG₁ LALA format (i.e., having the mutations L234A/L235A) were diluted to 2.5 nM in PBS-T (1×PBS with 0.05% Tween 20, pH 7.4). Antibodies were spotted onto a G-a-hu-IgG Fc SensEye® for 15 minutes using a Continuous Flow Microspotter (CFM, Wasatch Microfluidics, Salt Lake City, US). After spotting, the SensEye® was positioned in the IBIS MX96 biosensor, and antibodies were chemically fixed to the sensor surface using Fix It Kit (Ssens BV, The Netherlands). Kinetic analysis was performed by applying a kinetic titration series (Karlsson et. al., Anal. Biochem. 349(1):136-47 (2006)), where monomeric PD-1 antigen was injected in increasing concentrations from 2 nM to 100 nM without application of surface regeneration steps after each antigen injection. Binding was tested to human PD-1 ECD (Acro Biosystems cat. no. PD1-H52219), mouse PD-1 ECD (Sino Biological. cat. no. 50124-MO8H) and cynomolgus PD-1 ECD (Acro Biosystems cat. no. PD1-05223) in three separate experiments. Antigen association was performed for 15 minutes and antigen dissociation was performed for 60 minutes. The kinetic analysis was performed at 25° C. After completion, the recorded binding responses were fitted to a simple Langmuir 1:1 binding model with Scrubber 2 software for calculation of the on-rate (kₒₙ or kₐ), off-rate (koff or kd) and affinity (KD) constants.

Test [2] concerns the target T2, mouse PD-1 ECD (Sino Biological cat. no. 50124-MO8H) (mouse, UniProt Q02242 25-169).
T2 construct: extracellular domain; Bought monomeric ECD
T2 sequence (looked up): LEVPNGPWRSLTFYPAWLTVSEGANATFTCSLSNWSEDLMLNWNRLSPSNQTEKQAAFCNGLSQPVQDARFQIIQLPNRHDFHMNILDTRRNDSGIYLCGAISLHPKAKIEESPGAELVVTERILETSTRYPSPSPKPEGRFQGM
The procedure: as §1

Test [3] addresses T3, cynomolgus PD-1 ECD (Acro Biosystems cat. no. PD1-05223) (cynomolgus, UniProt B0LAJ3 25-170).
T3 construct: Bought monomeric ECD; not shown: any purification tag of the vendor's product (Acro Biosystems PD1-05223, probably a His tag)
The method, then: as §1

T1 sequence (Q15116 25-170, one chain of several): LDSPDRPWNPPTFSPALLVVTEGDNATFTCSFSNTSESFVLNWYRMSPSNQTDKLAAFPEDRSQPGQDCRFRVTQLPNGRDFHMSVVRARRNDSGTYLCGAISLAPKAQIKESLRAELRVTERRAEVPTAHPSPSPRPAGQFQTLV
T3 sequence (B0LAJ3 entry or part of it limits assumed): as the sequence (Q15116 25-170, one chain of several) above, with D2E, P10A, V19L, T35A, Q75R, T144A counted along it

B1: antibody 18049 (antibody, V domains shown)
VH: QVQLVESGGGVVQPGRSLRLSCAASGFTFSNYGMHWVRQAPGKGLEWVAVIWYDGSDKYYADSVKGRFTISRDNSKNTLYLQMNSLRAEDTAVYYCAGGGNYYGDFWGQGTLVTVSS
VL: EIVMTQSPSSLSASVGDRVTITCRASQGIRNDLGWYQQKPGKAPKRLIYVASNLQSGVPSRFSGSGSGTEFTLTISSLQPEDFATYYCLQYNSYPWTFGQGTKVEIKR
notes: Tested as human IgG1 L234A/L235A (LALA), kappa
As for B1, in test [1], the Kd – broadly, a measure of binding affinity in units of concentration – came to 1.8 nM; the koff (in general, the first-order rate constant of dissociation) worked out at 6e-05 s⁻¹; the kon (in general, the second-order rate constant of association) came out at 34000 M⁻¹ s⁻¹. For the same molecule, in test [2], the binding result is reported as “no binding (tested: 100 nM)”. In test [3], the equilibrium dissociation constant (Kd) came out at 2.1 nM, the koff turned out to be 8e-05 s⁻¹ and the kon was determined as 38000 M⁻¹ s⁻¹.

B2: antibody 18400 (antibody, V domains shown)
VH: QLQLQESGPGLVKPSGTLSLTCAVSGGSISSSNWWSWVRQPPKKGLEWVGEIFHDGTTSYNPSLKSRVTMSVDKSKNQFSLKLSSVTAADTAVYYCARGNWGSGALDIWGPGTMVTVSS
VL: EIVMTQSPSPLSASVGDRVTITCRASQGIRNDLGWYQQKPGKAPKLLIYAASSLQSGVPSRFSGSGSGTDFTLTISSLQPEDFATYYCLQDYNYPRTFGQGTKVEIKR
notes: as for B1
In the case of B2, the values for the Kd in test [1], in test [2] and in test [3] were 1.6 nM, 11 nM and 3.7 nM, respectively. Moreover, the koff in test [1] came out at 0.00035 s⁻¹; in test [2] it was 5e-05 s⁻¹; in test [3], 0.00087 s⁻¹. Moreover, the association rate constant (kon) in test [1] came to 230000 M⁻¹ s⁻¹; in test [2], 4700 M⁻¹ s⁻¹; in test [3] it was 230000 M⁻¹ s⁻¹.

B3: antibody 18098 (antibody, V domains shown)
VH: QVQLQESGGGLVRPGGSLRLSCAASGFTFSSFAMNWVRQAPGKGLVWVSTITGGGTTSYYADSVKGRFTISRDNSKSTLFLQMNSLRAEDTAVYYCAKWGSWSAGAFDIWGQGTTVTVSS
VL: DIQLTQSPSSVSASVGDRVTITCRASQGISSWLAWYQQKPGKAPKLLIYAASSLQSGVPSRFSGSGSGTDFTLTISSLQPEDFATYYCQQANSFPWTFGQGTKVEIKR
notes: as for B1
In test [1], B3 registered a Kd of 2.3 nM, a koff of 0.00023 s⁻¹ and a kon of 100000 M⁻¹ s⁻¹. The binding result in test [2] is “no binding (tested: 100 nM)”. Besides, in test [3], binding was characterised by a dissociation constant (Kd) of 34 nM, the koff was 0.0013 s⁻¹ and the kon stood at 39000 M⁻¹ s⁻¹.

B4: antibody 18325 (antibody, V domains shown)
VH: QVQLQQSGGGLVQPGGSLRLSCAASGFTFSSHVMNWVRQAPGKGLEWVATISGSGVDTYYADSVKGRFTISRGNSKNMLYLQMNSLRAEDTAVYYCAKWGSWSAGAFDIWGQGTMVTVSS
VL: EIVLTQSPSSVSASVGDRVTITCRASQGISSWLAWYQQKPGKAPKLLIYAASSLQSGVPSRFSGSGSGTDFTLTISSLQPEDFATYYCQQANSFPWTFGQGTKVEIKR
notes: as for B1
Consider B4, for which, in test [1], the Kd is 0.82 nM, the koff stood at 0.00011 s⁻¹ and the kon stood at 130000 M⁻¹ s⁻¹. Further, the binding result in test [2] was “no binding (tested: 100 nM)”. In test [3], this molecule displayed a Kd of 4.3 nM, a koff of 0.00062 s⁻¹ and a kon of 140000 M⁻¹ s⁻¹.

B5: antibody 18413 (antibody, V domains shown)
VH: EVQLVESGGGLVQPGGSLRLSCAASGFTFSSFVMSWVRQAPGKGLEWLSTISGGGGSTYYADSVKGRFTISRDNSKNTLYLQMNSLRAEDTAVYYCAKDWDLYYFDYWGQGTLVTVSS
VL: DIQLTQSPSSVPASVGDRVTITCRASQGISNWLAWYQQKPGKAPKLLIYAASSLQSGVPSRFSGSGSGTDFTLTISSLQPEDFATYYCQQANSFPLTFGGGTKVEIKR
notes: as for B1
In the case of B5, in test [1], binding was characterised by a dissociation constant (Kd) of 1.5 nM, the koff was determined as 0.00011 s⁻¹ and the kon was determined as 77000 M⁻¹ s⁻¹. Besides, in test [2], the binding result is listed as “no binding (tested: 100 nM)”. For the same molecule, in test [3], the Kd stood at 6.4 nM, the koff was 0.00062 s⁻¹ and the kon turned out to be 97000 M⁻¹ s⁻¹.

B6: antibody 18040 (antibody, V domains shown)
VH: QVQLVESGGGLVKPGGSLRLSCAASGFTFSDYYMNWIRQAPGKGLEWVSYISSTGSTIYYADSVKGRFTISRDNAKNSLYLQMDSLRAEDTAVYYCARATNWGSDYWGQGTLVTVSS
VL: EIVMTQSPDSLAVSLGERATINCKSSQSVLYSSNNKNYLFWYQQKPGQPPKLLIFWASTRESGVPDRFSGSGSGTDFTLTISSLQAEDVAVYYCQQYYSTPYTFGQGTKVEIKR
notes: Tested as human IgG1 L234A/L235A (LALA), kappa; The VH/VL entries carry X at variable positions
B6: in test [1], the Kd came out at 0.41 nM, the koff was 0.00011 s⁻¹ and the kon is 260000 M⁻¹ s⁻¹. The binding result in test [2] is recorded as “no binding (tested: 100 nM)”. Moreover, in test [3], the Kd was found to be 2.9 nM, the koff came out at 0.00097 s⁻¹ and the kon is 340000 M⁻¹ s⁻¹.

B7: antibody 18113 (antibody, V domains shown)
VH: QVQLVESGGGLVKPGGSLRLSCAASGFTFSDYYMSWIRQAPGKGLEWVSYISSSGSTIYYADSAKGRFTISRDNAKNSLYLQMNSLRAEDTAVYYCARDTNWAFDYWGQGTLVTVSS
VL: DIQLTQSPDSLAVSLGERATINCKSSQSVFYSANNKNYLAWYQQKPGQPPKLLIYWTSTRESGVPDRFRGSGSGTDFTLTISSLQAEDVAVYYCQQFYSTPRTFGQGTKVEIKR
notes: as for B1
In test [1], B7 had a Kd of 0.6 nM, a koff of 0.0001 s⁻¹ and a kon of 170000 M⁻¹ s⁻¹. The binding result in test [2] is on record as “no binding (tested: 100 nM)”. For the same molecule, in test [3], the Kd worked out at 5.3 nM, the koff came to 0.00076 s⁻¹ and the association rate constant (kon) was determined as 140000 M⁻¹ s⁻¹.

B8: antibody 18483 (antibody, V domains shown)
VH: QVQLQQSGGGLVQPGGSLRLSCAASGFTFSDYWMNWVRQAPGKGLEWVANIKEDGNEKYYVDSVKGRFTISRDNAKNSLYLQMNSLRAEDTAVYYCARDTNWGSDYWGQGTLVTVSS
VL: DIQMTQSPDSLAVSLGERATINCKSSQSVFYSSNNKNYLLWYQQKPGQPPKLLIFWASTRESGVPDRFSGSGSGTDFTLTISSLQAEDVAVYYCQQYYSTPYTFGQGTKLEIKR
notes: as for B1
Regarding B8, in test [1], the affinity, expressed as Kd, was 0.29 nM; the dissociation rate constant (koff) came out at 0.00017 s⁻¹; the kon is 580000 M⁻¹ s⁻¹. Moreover, in test [2], the binding result was “no binding (tested: 100 nM)”. Besides, in test [3], binding was characterised by a dissociation constant (Kd) of 3.1 nM, the koff worked out at 0.0008 s⁻¹ and the kon came out at 260000 M⁻¹ s⁻¹.
